Where two headings read alike, the source gives them in different places.

These results are taken from PMC6468249.

Data set [1] deals with T1, mtSSB (Homo sapiens, UniProt Q04837 15-148).
T1 sequence: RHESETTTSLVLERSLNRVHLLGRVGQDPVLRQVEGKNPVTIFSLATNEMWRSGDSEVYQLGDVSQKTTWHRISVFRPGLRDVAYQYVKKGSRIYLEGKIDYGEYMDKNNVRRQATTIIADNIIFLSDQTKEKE
Description: EMSA.

The target of data set [2] is T1, mtSSB. Description: EMSA. This is another data set of the same source. For orientation: A gel shift assay detects complexes by their altered migration in electrophoresis.

With AGAACCUGUUGAACAAAAGC (ssRNA) [20 nt RNA probe], the binding result in the data set with mtSSB [1] is recorded as “binds”.
For AGAACCTGTTGAACAAAAGC (ssDNA) [20 nt ssDNA probe], the binding result in the data set with mtSSB [2] is given as “binds”.
